Consider 2 molecules from publication PMC6093708, “Ligand discrimination and gating in cyclic nucleotide-gated ion channels from apo and partial agonist-bound cryo-EM structures” (eLife, 2018).

The target in one experiment is T1, SthK (Winmispira thermophila, UniProt G0GA88).
T1 construct: gene Spith_0644; C-terminally truncated SthK 1-420; 19 extra N-terminal vector residues kept; expressed in E. coli C41(DE3); homotetramer in POPG/MSP1E3 nanodiscs or liposomes
Put plainly: single-channel recording in horizontal lipid bilayer. The experiment is classed as biochemical. The conditions noted are these: very poor partial agonist; 7 mM cGMP; +100 mV; KCl, pH 7.0.

For experiment [1], the target named is SthK 1-420, cyclic nucleotide-gated potassium channel from Spirochaeta thermophila (Spirochaeta thermophila). Nature of the experiment: negative stain electron microscopy; SthK in lipid nanodiscs (20 ug/mL), uranyl acetate stain, 2D classification.
The target is the same in experiment [2]. Nature of the experiment: cryo-EM structure; SthK in POPG/MSP1E3 lipid nanodiscs; apo, with 2 mM cAMP or with 7 mM cGMP; 20 mM HEPES pH 8.0, 100 mM KCl; refined with C4 symmetry and without symmetry (C1).

T1 sequence (G0GA88 entry or part of it): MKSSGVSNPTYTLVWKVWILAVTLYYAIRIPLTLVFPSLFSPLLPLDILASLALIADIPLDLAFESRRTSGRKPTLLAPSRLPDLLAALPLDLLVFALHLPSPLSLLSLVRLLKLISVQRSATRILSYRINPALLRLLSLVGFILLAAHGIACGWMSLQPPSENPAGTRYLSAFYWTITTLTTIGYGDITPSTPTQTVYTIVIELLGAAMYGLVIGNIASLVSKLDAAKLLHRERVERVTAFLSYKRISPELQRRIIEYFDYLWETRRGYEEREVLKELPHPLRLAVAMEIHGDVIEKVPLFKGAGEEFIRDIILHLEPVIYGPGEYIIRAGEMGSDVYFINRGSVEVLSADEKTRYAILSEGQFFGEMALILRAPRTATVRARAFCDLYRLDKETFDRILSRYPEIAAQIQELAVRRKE

As to `Nc1nc2c(ncn2[C@@H]2O[C@@H]3COP(=O)(O)O[C@H]3[C@H]2O)c(=O)[nH]1` [cGMP], at SthK, the Po is ~ 0.003.

A word on the stoichiometry N: it is a count of units in the complex or per binding partner. With “SthK 1-420, cyclic nucleotide-gated potassium channel from Spirochaeta thermophila (natural protein)”, the stoichiometry N in experiment [1] and in experiment [2] was 4 each time.
